Here are results for one molecule from article PMC8158043 (mAbs, 2021).

The target of this test is SARS-CoV-2 RBD (residues 319–541) (SARS-CoV-2, UniProt P0DTC2). Put plainly: BLI. Background: BLI is a label-free optical method that tracks binding on a fibre tip over time.

B1: CR3014 parental (human IgG1) (antibody, V domains shown)
VH: EVQLVESGGGLVQPGGSLRLSCAASGFTFSDHYMDWVRQAPGKGLEWVGRTRNKANSYTTEYAASVKGRFTISRDDSKNSLYLQMNSLKTEDTAVYYCARGISPFYFDYWGQGTLVTVSS
VL: not shown
On to B1, for which the binding result is “no binding”.
